# Changes are numbered by the printed parent chain.
# T1: human H7CR (B7-H7 counter-receptor) (human, UniProt Q96BF3 23-282)
# T1 construct: Used for H7CR on CHO.hH7CR transfectants, human T cells and tonsil tissue; also called B7-H7CR; CD28H
# T1 sequence: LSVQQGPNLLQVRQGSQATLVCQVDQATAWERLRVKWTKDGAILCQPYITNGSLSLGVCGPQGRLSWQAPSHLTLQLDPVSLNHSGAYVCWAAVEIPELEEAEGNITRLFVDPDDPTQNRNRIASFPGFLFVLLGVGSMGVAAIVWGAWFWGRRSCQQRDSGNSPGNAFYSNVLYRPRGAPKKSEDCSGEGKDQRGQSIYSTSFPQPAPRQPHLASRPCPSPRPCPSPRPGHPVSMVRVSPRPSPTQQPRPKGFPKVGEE
# T2: H7CRECD human IgG1 Fc fusion protein (human, UniProt Q96BF3 23-150)
# T2 construct: also called H7CR fusion protein; not shown: human IgG1 Fc
# T2 sequence: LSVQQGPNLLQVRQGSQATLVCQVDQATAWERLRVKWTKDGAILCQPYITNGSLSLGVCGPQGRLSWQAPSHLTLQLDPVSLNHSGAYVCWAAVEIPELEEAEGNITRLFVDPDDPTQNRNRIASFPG
# T3: H7CR-GFP fusion protein on transfected CHO cells (Homo sapiens (Human), UniProt Q96BF3 23-282)
# T3 construct: not shown: GFP part
# T3 sequence: T1 sequence
# B1: 4.5 humanized variant 1 (HC1-1 / LC1-1) (antibody, V domains shown)
# VH: QVQLQESGPGLVKPSQTLSLTCTVSGFSITTGGYYWSWIRQHPGKGLEWIGYIYTSGRTYYNPSLKSRVTISVDTSKNQFSLKLSSVTAADTAVYYCADMADKGGWFAYWGQGTLVTVSS
# VL: DIVMTQSPDSLAVSLGERATINCKSSQSLFSSNTKRNYLAWYQQKPGQPPKLLIYHASTRESGVPDRFSGSGSGTDFTLTISSLQAEDVAVYYCQQHYETPLTFGQGTRLEIK
# notes: Variable domains only; detected with anti-hIg secondary; also called VH1A / VL1A
# B2: 4.5 humanized variant 2 (HC1-1 / LC1-2) (antibody, V domains shown)
# VH: B1 VH
# VL: B1 VL with A40N, E61L, V91D, Y93F, Q106D
# notes: Variable domains only; detected with anti-hIg secondary; also called VH1A / VL1B
# B3: 4.5 humanized variant 3 (HC1-1 / LC1-3) (antibody, V domains shown)
# VH: B1 VH
# VL: B1 VL with K24L, A40N, P49S, E61L, V91D, Y93F, Q106D
# notes: Variable domains only; detected with anti-hIg secondary; also called VH1A / VL1C
# B4: 1.3 humanized variant V4 (heavy 2A / light 1A) (antibody, V domains shown)
# VH: QVQLQESGPGLVKPAQTLSLTCTVSGFSISTSGYYWSWIRQYPGKGLEWIGYINYGGGTYYNPSLKSRVTISVDTSKNQFSLKLTSVTAADTAVYHCATMADRFAFFDVWGQGTMVTVSS
# VL: B1 VL with K35N, Q96H, R109K
# notes: Variable domains only; detected with anti-human IgG4 HRP
# B5: 1.3 humanized variant V8 (heavy 1C / light 1B) (antibody, V domains shown)
# VH: B4 VH with A15S, Y42F, G46R, I50M, Y60S, V73R, T85S, V94T, H96C
# VL: B1 VL with K35N, A40N, P49S, E61L, V91D, Q96H, Q106D, R109K
# notes: as for B4
# B6: 1.3 humanized variant V12 (heavy 1C / light 1C) (antibody, V domains shown)
# VH: B4 VH with A15S, Y42F, G46R, I50M, Y60S, V73R, T85S, V94T, H96C
# VL: DIVMTQSPDSLAVSLGERATINCLSSQSLFSSNTNRNYLNWYLQKPGQSPKLLIYHASTRLSGVPDRFIGSGSGTDFTLTISSLQAEDVGDYYCQHHYETPLTFGDGTKLEIK
# notes: as for B4
# B7: 1.3 humanized variant V13 (heavy 2B / light 1C) (antibody, V domains shown)
# VH: B4 VH with G46R, Y60S, V73R, V94T, H96C
# VL: B6 VL
# notes: as for B4
# B8: 1.3 humanized variant V2 (heavy 1B / light 1A) (antibody, V domains shown)
# VH: B4 VH with A15S, Y42H, G46R, Y60S, V73R, T85S, H96C
# VL: B1 VL with K35N, Q96H, R109K
# notes: as for B4
# B9: 1.3 humanized variant V10 (heavy 2C / light 1B) (antibody, V domains shown)
# VH: B4 VH with Y42F, G46R, I50M, Y60S, V73R, V94T, H96C
# VL: B6 VL with L24K, L43Q, I69S, G90A
# notes: as for B4
# B10: 1.3 humanized variant V3 (heavy 1C / light 1A) (antibody, V domains shown)
# VH: B4 VH with A15S, Y42F, G46R, I50M, Y60S, V73R, T85S, V94T, H96C
# VL: B1 VL with K35N, Q96H, R109K
# notes: as for B4
# B11: 1.3 humanized variant V6 (heavy 2C / light 1A) (antibody, V domains shown)
# VH: B4 VH with Y42F, G46R, I50M, Y60S, V73R, V94T, H96C
# VL: B1 VL with K35N, Q96H, R109K
# notes: as for B4
# B12: 1.3 humanized variant V5 (heavy 2B / light 1A) (antibody, V domains shown)
# VH: B4 VH with G46R, Y60S, V73R, V94T, H96C
# VL: B1 VL with K35N, Q96H, R109K
# notes: as for B4
# B13: 1.3 humanized variant V9 (heavy 2B / light 1B) (antibody, V domains shown)
# VH: B4 VH with G46R, Y60S, V73R, V94T, H96C
# VL: B6 VL with L24K, L43Q, I69S, G90A
# notes: as for B4
# B14: 1.3 humanized variant V7 (heavy 1B / light 1B) (antibody, V domains shown)
# VH: B4 VH with A15S, Y42H, G46R, Y60S, V73R, T85S, H96C
# VL: B6 VL with L24K, L43Q, I69S, G90A
# notes: as for B4
# B15: 1.3 humanized variant V11 (heavy 1B / light 1C) (antibody, V domains shown)
# VH: B4 VH with A15S, Y42H, G46R, Y60S, V73R, T85S, H96C
# VL: B6 VL
# notes: as for B4
# B16: 1.3 humanized variant V1 (heavy 1A / light 1A) (antibody, V domains shown)
# VH: B4 VH with A15S, Y42H, T85S, H96Y
# VL: B1 VL with K35N, Q96H, R109K
# notes: Variable domains only; detected with anti-human IgG4 HRP; also called VI; variant 1
# B17: 1.3 humanized variant V14 (heavy 2C / light 1C) (antibody, V domains shown)
# VH: B4 VH with Y42F, G46R, I50M, Y60S, V73R, V94T, H96C
# VL: B6 VL
# notes: as for B4
# B18: human IgG4 Fc chimeric 1.3 antibody (antibody, V domains shown)
# VH: QIQLQESGPGLVKPSQSLSLTCSVTGFSISTSGYYWTWIRQFPGKRLEWMGYINYGGGTSYNPSLKSRISITRDTSKNQFLLHLNSVTTEDTATYCCATMADRFAFFDVWGQGIQVTVSS
# VL: DIVMTQSPSSLAVSAGEKVTISCLSSQSLFSSNTNRNYLNWYLQKPGQSPKLLIYHASTRLTGVPDRFIGSGSGTDFTLTISSVQAEDLGDYYCQHHYETPLTFGDGTKLEIKR
# notes: also called parental chimeric 1.3 antibody
# B19: hamster anti-human H7CR antibody clone 7.8 (antibody, V domains shown)
# VH: QIQLQESGPGLVKPSQSLSLTCSVTGFSITTGGYYWNWIRQFPGKKLEWMGYIYSSGRTSYNPSLKSRISITRDTSKNQFFLQLNSVTTEDTATYYCADMADKGGWFDYWGQGTLVTVSS
# VL: DIVMTQSPSSLTVSAGEKVTISCLSSQSLFSSNTNRNYLSWYLQRPGQSPKLLIYHASTRLTGVPGRFIGSGSGTDFTLTVSTVQAGDLGDYFCQQHYVTPLTFGDGTRLEIK
# notes: Hamster monoclonal antibody; also called H7CR7.8
# B20: chimeric 4.5 antibody (antibody, human IgG4 S228P, kappa, V domains shown)
# VH: B19 VH with S55T, V87M, D108A
# VL: B18 VL with N35K, D66G, I81V, S83T, Y93F, H96Q, K109R
# Biological target: T1, human H7CR (B7-H7 counter-receptor)
# Experiment: binding to human H7CR as endogenously expressed on the surface of a cell
row,Binder,binding result
1,B1,binds
2,B2,binds
3,B3,binds

# Biological target: T2, H7CRECD human IgG1 Fc fusion protein
# Experiment: ELISA, H7CRECD human IgG1 Fc immobilized, anti-human IgG4 HRP detection
# Description: 100 μl 1 μg/ml H7CRECD human IgG1 Fc fusion protein diluted in PBS was immobilized on flat bottom 96 well plate (Costar 9017) overnight at 4° C. Plates were washed twice with PBS+0.1% PS-20 and blocked with 200 μl/well PBS 10% FBS at RT for 1 hr. 100 μl human IgG4 Fc chimeric 1.3 and 14 selected 1.3 humanized variants diluted in PBS 10% FBS were added to each well and incubated at RT for 1 hr. Plates were washed three times and 100 μl 1 μg/ml anti-human IgG4 HRP (Southern Biotech) was added to each well and incubated at RT for 1 hr. Plates were washed six times and 100 μl TMB substrate (SurModics) was added to each well for 5-15 mins. 100 μl stop solution (0.1M Sulfuric acid) was added to each well. Plates were read at Absorbance 450 nm by PerkinElmer EnVision 2104 Multilabel Reader.
row,Binder,EC50 [nM]
1,B4,1.08
2,B5,0.74
3,B6,0.75
4,B7,0.45
5,B8,0.23
6,B9,1.18
7,B10,0.38
8,B11,0.3
9,B12,0.28
10,B13,2.43
11,B14,1.01
12,B15,1.04
13,B16,0.84
14,B17,0.32
15,B18,0.055

# Biological target: T1, human H7CR (B7-H7 counter-receptor)
# Experiment: flow cytometry, 5 µg/ml mAb on H7CR CHO stable transfectants [C]
# Description: 5 μg/ml H7CR 1.3, 4.5 and 7.8 mAbs was used to stain H7CR stable transfectants to show binding specificity (FIG. 4). 10 μg/ml B7-H7mIg fusion protein was also used to stain H7CR CHO transfectants. H7CR mAbs were added to the system to evaluate the blocking capability of H7CR mAbs on B7-H7-H7CR interactions (FIG. 5). Immunohistochemistry staining for H7CR on human tonsil paraffin-embedded section was performed with 4.5 antibody at a concentration of 5 μg/ml using a standard protocol (FIG. 6). For cell surface staining and analysis by flow cytometry, cells were incubated with the indicated mAb for 30 min at 4° C., washed with buffer and analyzed. Expression of H7CR on human and mouse PBMC was evaluated by lineage marker and 1.3 antibody staining (FIG. 7-11). Expression of B7-H7 on activated monocyte-derived DC was evaluated by anti-B7-H7 antibody staining (FIG. 12).
row,Binder,binding result
1,B19,binds

# Biological target: T1, human H7CR (B7-H7 counter-receptor)
# Experiment: flow cytometry titration on CHO.hH7CR transfectants, one-site specific binding fit of MFI
# Description: (§1) A serial dilution of chimeric 1.3 and 4.5 of 0, 0.1 ng, 0.3 ng, 1 ng, 3 ng, 10 ng, 30 ng, 100 ng, 300 ng, 1 μg, 3 μg and 10 μg were added to the cells and incubated at 4° C. for 30 min. Cells were then washed twice with 2 ml flow cytometry buffer, and resuspended in 100 μl flow cytometry buffer. 1 μl anti-hIg PE secondary antibody (Biolegend) was added and incubated with the cells for 15 mins Samples were then washed and resuspended in 100 μl flow cytometry buffer. Flow Cytometry data was acquired using BD Canto (BD Biosciences) in plate format and analyzed by FlowJo software. Staining data (MFI) was then input into Prism 5 software to generate binding curve. Curve-fit using one-site specific binding algorithm calculates individual KD for each antibody.
row,Binder,Kd [nM]
1,B20,3.5
2,B18,5.9

# Biological target: T3, H7CR-GFP fusion protein on transfected …
# Experiment: flow cytometry, 5 µg/ml variant on H7CR-GFP transfected CHO cells, anti-hIg PE secondary antibody [row HC1-1, column LC1-1]
# Description: (§2) 5 μg/ml antibodies from thirty-six variants were incubated with H7CR-GFP fusion protein transfected CHO cells for 30 min at room temperature. Cells were then washed twice with 2 ml flow cytometry buffer, and resuspended in 100 μl flow cytometry buffer. 1 μl anti-hIg PE secondary antibody (Biolegend) was added and incubated with the cells for 15 mins Samples were then washed and resuspended in 100 μl flow cytometry buffer. Flow Cytometry data was acquired using BD Canto (BD Biosciences) in plate format and analyzed by FlowJo software.
row,Binder,binding result
1,B1,binds

# Biological target: T3, H7CR-GFP fusion protein on transfected …
# Experiment: flow cytometry, 5 µg/ml variant on H7CR-GFP transfected CHO cells, anti-hIg PE secondary antibody [row HC1-1, column LC1-2]
# Description: as §2
row,Binder,binding result
1,B2,binds

# Biological target: T3, H7CR-GFP fusion protein on transfected …
# Experiment: flow cytometry, 5 µg/ml variant on H7CR-GFP transfected CHO cells, anti-hIg PE secondary antibody [row HC1-1, column LC1-3]
# Description: as §2
row,Binder,binding result
1,B3,binds

# Biological target: T1, human H7CR (B7-H7 counter-receptor)
# Experiment: flow cytometry, MFI against antibody concentration on human naive CD4+CD45RA+ T cells, anti-hIg PE secondary antibody, one-site specific binding fit
# Description: as §1
row,Binder,Kd [nM]
1,B20,6.9
2,B18,24

# Biological target: T1, human H7CR (B7-H7 counter-receptor)
# Experiment: flow cytometry, MFI against antibody concentration on human naive CD8+CD45RA+ T cells, anti-hIg PE secondary antibody, one-site specific binding fit
# Description: as §1
row,Binder,Kd [nM]
1,B20,6.9
2,B18,27

# Source: patent US20160024210A1 (AstraZeneca / MedImmune, published 2016)
